This is an account of results in patent US20260207747A1 (ARTIVA BIOTHERAPEUTICS, published 2026).

To fix the notation:
T1: human B cell maturation antigen (BCMA), full-length, on cells (human, UniProt Q02223 1-184)
T1 construct: also called CD269; TNFRSF17
T1 sequence: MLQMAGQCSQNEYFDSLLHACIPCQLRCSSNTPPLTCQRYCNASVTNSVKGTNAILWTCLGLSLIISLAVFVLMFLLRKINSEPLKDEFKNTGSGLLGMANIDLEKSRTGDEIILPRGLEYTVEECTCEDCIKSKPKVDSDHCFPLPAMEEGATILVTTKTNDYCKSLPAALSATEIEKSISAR

B1: 13I04A scFv (scFv)
scFv: DIVMTQSPDSLAVSLGERATINCKSSQSVLYSSYNKNYLAWYQQKPGQPPKILIYWASTRESGVPDRFTGSGSGTDFTLTISSLQAEDVAVYYCQQYYSTMYSFGQGTKLEIKGGGGSGGGGSGGGGSEVQLVESGGGLVQPGGSLRLSCAASGFTSSNYWMSWVRQAPGKGLEWVANIKHDGSEKYFVDSVKGRFTISRDNANNSLYLQMNSLRDEDTAVYYCARMRPWYYDLWGRGTLVTVSS
notes: VL-(G4S)3-VH
B2: 16M16A scFv (scFv)
scFv: QPVLTQPPSASASLGASVTLTCTLSSGYSNYKVDWYQQRPGKGPRFVMRVGTGGIVGSKGDGIPDRFSVLGSGLNRYLTIKNIQEEDESDYHCGADHGSGSNFVYVFGTGTKVTVLGGGGSGGGGSGGGGSQVQLVQSGTEVKKPGASVKVSCKASGSTFTSFFIHWVRQAPGQGLEWMGLINPSGGGTGYALKFQGRVTMTRDTSTSTVYMELSSLRSEDTAVYFCSRGNYEAFDLWGHGTMVTVSS
notes: VL-(G4S)3-VH
B3: 13L15A scFv (scFv)
scFv: QPVLTQPPSASASLGASVTLTCTLSSGYSNYRVDWYQQRPGKGPRFVMRVGTGGIVGSKGDGIPDRFSVLGSGLNRYLTIKNIQEEDESDYHCGADHGSGSNFVWVFGGGTKLTVLGGGGSGGGGSGGGGSQAQLVQSGAEVKRPGASVKVSCKASGYTFISYLLHWVRQAPGQGLEWMVIINPSVGSTSYAQKFQGRVTMTRDTSTSTLYMELSSLRSEDTAVYYCARSSRNYWDGAFDIWGQGTMVTVSS
notes: VL-(G4S)3-VH
B4: 01P08A scFv (scFv)
scFv: QPVLTQPPSASASLGASVTLTCTLSSGYSNYKVDWYQQRPGKGPRFVMRVGTGGIVGSKGDGIPDRFSVLGSGLIRYLTIKNIQEEDESDYHCGADHGSGNNFVYVFGTGTKVTVLGGGGSGGGGSGGGGSQVQLQESGPGLVKPSETLSLTCIVSGGSISSYYWNWIRQPAGKGLEWIGRIYKSGNNIYNPSLQSRVTMSLDTSKNQFSLKLSSVTAADTAVYYCADGGNYFDWFDPWGQGTLVIVSS
notes: VL-(G4S)3-VH
B5: Antibody #2 (Clone ID 13I04A) (antibody, V domains shown)
VH: EVQLVESGGGLVQPGGSLRLSCAASGFTSSNYWMSWVRQAPGKGLEWVANIKHDGSEKYFVDSVKGRFTISRDNANNSLYLQMNSLRDEDTAVYYCARMRPWYYDLWGRGTLVTVSS
VL: not shown
notes: Raised in AlivaMab mice immunised with human BCMA and purified on protein A. Detected with anti-mouse IgG; also called 13104A
B6: Antibody #4 (Clone ID 14D14A) (antibody, V domains shown)
VH: QVQLQESGPGLVKPSETLSLTCTVSGGSISSYYWCWIRQSAGKGLEWIGRMYTSGSTNYNPSLKSRVTMSVDTSKNQFSLKLTSVTAADTAVYYCARERGYYYGGGGWIDPWGQGTLVTVSS
VL: not shown
notes: That clone differs in Kabat CDR-H1 (SYYWC against SYYWS)
B7: Antibody #1 (Clone ID 01P08A) (antibody, V domains shown)
VH: QVQLQESGPGLVKPSETLSLTCIVSGGSISSYYWNWIRQPAGKGLEWIGRIYKSGNNIYNPSLQSRVTMSLDTSKNQFSLKLSSVTAADTAVYYCADGGNYFDWFDPWGQGTLVIVSS
VL: QPVLTQPPSASASLGASVTLTCTLSSGYSNYKVDWYQQRPGKGPRFVMRVGTGGIVGSKGDGIPDRFSVLGSGLIRYLTIKNIQEEDESDYHCGADHGSGNNFVYVFGTGTKVTVL
notes: Raised in AlivaMab mice immunised with human BCMA and purified on protein A. Detected with anti-mouse IgG
B8: Antibody #3 (Clone ID 13L15A) (antibody, V domains shown)
VH: QAQLVQSGAEVKRPGASVKVSCKASGYTFISYLLHWVRQAPGQGLEWMVIINPSVGSTSYAQKFQGRVTMTRDTSTSTLYMELSSLRSEDTAVYYCARSSRNYWDGAFDIWGQGTMVTVSS
VL: B7 VL with K32R, I75N, N101S, Y105W, T109G, V113L
notes: as for B7
B9: Antibody #5 (Clone ID 16M16A) (antibody, V domains shown)
VH: QVQLVQSGTEVKKPGASVKVSCKASGSTFTSFFIHWVRQAPGQGLEWMGLINPSGGGTGYALKFQGRVTMTRDTSTSTVYMELSSLRSEDTAVYFCSRGNYEAFDLWGHGTMVTVSS
VL: B7 VL with I75N, N101S
notes: as for B7
B10: Antibody #4 (Clone ID 14D14A_C) (antibody, V domains shown)
VH: B6 VH
VL: not shown
notes: Same VL as 14D14A; The VH differs in Kabat CDR-H1 (SYYWC)

Substitutions are numbered along the chain they refer to. Names and notes keep the numbering of the source.

The first assay deals with T1, human B cell maturation antigen (BCMA), …. In words: Retrogenix Cell Microarray, proteins expressed in human HEK293 cells.
As for B1, the binding result is listed as “binds”.

As to B2, the binding result is listed as “binds”.

In the case of B3, the binding result is given as “binds”.

In the case of B4, the binding result is recorded as “binds”.

The target is the same in a further assay. The assay is described as follows: FACS titration (Scatchard analysis) on BCMA-expressing human NCI-H929 cells; anti-mouse IgG-A647 detection. Here is the method: (§1) Antibodies were generated by immunizing AlivaMab mice with human BCMA and sequenced. The antibody sequences are shown in Table 3, Table 4, Table 5, Table 6, Table 7, and Table 8. […] Antibodies were titrated from 10 nM, with seven 1:5 dilutions. A positive control, mouse anti-human BCMA antibody (Biolegend, cat #357514) was tested in each experiment. Binding readout was measured via secondary detection, using an anti-mouse IgG-A647 nm (dilution 1:10000).
Turning to B5, the EC50 was 189 pM.

B6 registered an EC50 of 827 pM.

Molecule B7 returned an EC50 of 3790 pM.

In the case of B8, the EC50 was determined as 235 pM.

As for B9, the EC50 was found to be 188 pM.

The next assay shares this target. The assay is described as follows: FACS titration (Scatchard analysis) on HEK-293T cells stably expressing full-length human BCMA; anti-mouse IgG-A647 detection. Here is the method:
as §1
With B5, the EC50 turned out to be 37 pM.

With B6, the EC50 is 172 pM.

In turn, B7 returned an EC50 of 1040 pM. Against the preceding molecule, the EC50 is about 6-fold higher.

B8 gave an EC50 of 51 pM.

For B9, the EC50 was determined as 40 pM.

A further assay has the same target. In words: FACS titration; cells not named in the heading (value equals the NCI-H929 EC50 of 14D14A in Table 2); heading of Table 6; cells not given.
On to B10, for which the response was half-maximal at 827 pM (EC50).
